In patent US20260209316A1 (US Dept. of Health and Human Services, published 2026):
Like-named read-outs stand apart in the source and are kept apart here.

Key:
[1] = target: T1, mucin domain-deleted Sudan GP (GPdMuc) (Sudan virus (SUDV), UniProt Q7T9D9 33-632); experiment: BLI competition on Sudan GPdMuc (upper table); competitor 15H10
T1 construct: also called Sudan GPdMuc; GP(S)dMuc

[2] = target: T1, mucin domain-deleted Sudan GP (GPdMuc); experiment: BLI competition on Sudan GPdMuc (upper table); competitor 16F6
[3] = target: T1, mucin domain-deleted Sudan GP (GPdMuc); experiment: BLI competition on Sudan GPdMuc (upper table); competitor mAb166
[4] = target: T1, mucin domain-deleted Sudan GP (GPdMuc); experiment: BLI competition on Sudan GPdMuc (upper table); competitor 316L
[5] = target: T1, mucin domain-deleted Sudan GP (GPdMuc); experiment: ELISA on coated GP
[6] = target: T1, mucin domain-deleted Sudan GP (GPdMuc); experiment: ELISA on coated GP; remark: listed apart in the source
[7] = target: T1, mucin domain-deleted Sudan GP (GPdMuc); experiment: BLI competition on Sudan GPdMuc (lower table); competitor 316L
[8] = target: T1, mucin domain-deleted Sudan GP (GPdMuc); experiment: BLI competition on Sudan GPdMuc (lower table); competitor mAb166
[9] = target: T1, mucin domain-deleted Sudan GP (GPdMuc); experiment: BLI competition on Sudan GPdMuc (lower table); competitor 15H10
[10] = target: T1, mucin domain-deleted Sudan GP (GPdMuc); experiment: BLI competition on Sudan GPdMuc (lower table); competitor 16F6
[11] = target: T2, mucin domain-deleted Zaire GP (GPdMuc) (Ebola (Zaire) virus (EBOV), UniProt Q05320 33-632); experiment: ELISA on coated GP
T2 construct: also called Zaire GPdMuc; GP(Z)dMuc

[12] = target: T1, mucin domain-deleted Sudan GP (GPdMuc); experiment: ELISA on coated GP; remark: listed apart in the source
[13] = target: T2, mucin domain-deleted Zaire GP (GPdMuc); experiment: BLI competition on Zaire GPdMuc (upper table); competitor 13C6
[14] = target: T1, mucin domain-deleted Sudan GP (GPdMuc); experiment: BLI competition on Sudan GPdMuc (lower table); competitor mAb166; remark: listed apart in the source
[15] = target: T2, mucin domain-deleted Zaire GP (GPdMuc); experiment: BLI competition on Zaire GPdMuc (upper table); competitor KZ52
[16] = target: T2, mucin domain-deleted Zaire GP (GPdMuc); experiment: BLI competition on Zaire GPdMuc (upper table); competitor mAb114
[17] = target: T2, mucin domain-deleted Zaire GP (GPdMuc); experiment: BLI competition on Zaire GPdMuc (upper table); competitor 15H10
[18] = target: T2, mucin domain-deleted Zaire GP (GPdMuc); experiment: BLI competition on Zaire GPdMuc (upper table); competitor 316L
[19] = target: T1, mucin domain-deleted Sudan GP (GPdMuc); experiment: BLI competition on Sudan GPdMuc (lower table); competitor 15H10; remark: listed apart in the source
[20] = target: T2, mucin domain-deleted Zaire GP (GPdMuc); experiment: BLI competition on Zaire GPdMuc (upper table); competitor 380L
[21] = target: T3, mucin domain-deleted Zaire GP (GPdMuc) (Ebola (Zaire) virus (EBOV), UniProt Q05320 33-632); experiment: as above
[22] = target: T3, mucin domain-deleted Zaire GP (GPdMuc); experiment: BLI competition on Zaire GPdMuc (upper table); competitor KZ52
[23] = target: T3, mucin domain-deleted Zaire GP (GPdMuc); experiment: BLI competition on Zaire GPdMuc (upper table); competitor mAb114
[24] = target: T3, mucin domain-deleted Zaire GP (GPdMuc); experiment: BLI competition on Zaire GPdMuc (upper table); competitor 15H10
[25] = target: T3, mucin domain-deleted Zaire GP (GPdMuc); experiment: BLI competition on Zaire GPdMuc (upper table); competitor 316L
[26] = target: T4, mucin domain-deleted Sudan GP (GPdMuc) (Sudan virus (SUDV), UniProt Q7T9D9 33-632); experiment: ELISA on coated GP
[27] = target: T4, mucin domain-deleted Sudan GP (GPdMuc); experiment: ELISA on coated GP; remark: listed apart in the source
[28] = target: T4, mucin domain-deleted Sudan GP (GPdMuc); experiment: BLI competition on Sudan GPdMuc (lower table); competitor mAb166
[29] = target: T4, mucin domain-deleted Sudan GP (GPdMuc); experiment: BLI competition on Sudan GPdMuc (lower table); competitor 15H10

B1: antibody 573S (antibody, V domains shown)
VH: EVQLVESGGGLVKPGGSLRLSCAASGFTFSSYTMNWVRQAPGKGLEWVSCIRSSSSDKYYADSVKGRFTISRDNTKNSLYLQMNSLRADDTAVYYCARDLGGANNRYYFDYGMDVWGQGTTVTVSS
VL: EIVMTQSPATLSVSPGGRATLSCRASQSVYTNLAWYQQKPGQAPRLLIYDASTRATGIPARFSGSGSGTEFTLTISSLQCEDFAVYYCQHYNNWPLYTFGQGTKLEIK
[1]
  % inhibition of binding: 15.8%
[2]
  % inhibition of binding: 76.2%
[3]
  % inhibition of binding: 8.08%
[4]
  % inhibition of binding: 6.38%
[5]
  EC50: 0.101 µg/mL

B2: antibody 291S (antibody, V domains shown)
VH: QVQLQESGPGLVKPSQTLSLTCTVSGGSFSSGFYWSWIRQRPGKGLEWVGYTYYSGSTYYNPSLQSRVTISVDTSKNQFSLNLSSVTAADTAVYHCARADYGGLFDYWGQGILVTVSS
VL: QSVLTQPSSLSASPGASASLTCTLRSGINVGTYRIFWYQQKPGSPPQFLLRYNSDSDKQQGSGVPSRFSGSKDASANAGILLISGLQSEDEADYYCMIWHTSAWVFGGGTKLTVL
[6]
  EC50: 0.0519 µg/mL

B3: antibody 545S (antibody, V domains shown)
VH: QVQLQESGPGLVKPSQTLSLTCTVSGGSISRAGSYWSWIRQHPGKGLEWIGYISYSGSTYYNPSLESRVTMSLDTSKSQFSLKLSSVTAADTAVYYCAREDRSGFYGLDVWGQGTTVTVSS
VL: QSVLTQPSSLSASPGATASLTCTLRSGINVDTYRIYWYQQKPGSPPQYLLRYKSDSDKHQGSGVPSRFSGSKDASANAGILLISGLQSADEADYYCMIWHSGAWVFGGGTKLTVQG
notes: also called 545S mAb
[6]
  EC50: 0.0233 µg/mL

B4: antibody 541S (antibody, V domains shown)
VH: QVQLVQSGAEVKKPGASVKVSCKASGYTFTNYAITWVRQAPGQGLEWMGWISAFNGQINYAQKFQGRVAMTTDTSTSTAYMELRSLRSDDTAVYYCARAPPMWFSGAKFDYWGQGTLVTVSS
VL: QSVLTQPPSVSGTPGQRVTISCSGSSSNIGSNTVNWYQQLPGTAPKLLIYSNDQRPSGVPDRFSGSKSGTSASLAISGLRSEDEADYYCAAWDETLRRVFGGGTRLTVL
[1]
  % inhibition of binding: 18.6%
[2]
  % inhibition of binding: 72.1%
[3]
  % inhibition of binding: 15.7%
[4]
  % inhibition of binding: 16.2%
[5]
  EC50: 0.23 µg/mL

B5: antibody 523S (antibody, V domains shown)
VH: QVQLVQSGAELKKPGASVKVSCKASGYTFSDHYVHWVRQAPGQGLEWMGRINPNSGGTNYAQRFLGRVTMTRDASISTAYLDLSSLRSDDTAVYYCARSSSSWSGHYYYYMDVWGKGTTVTVSS
VL: QSVLTQPPSVSAAPGQRVTISCSGSTSNIASNFVSWYQQLPGTAPKLLIYDNHKRPSGIPDRFSGSKSGTSATLGITGLQTGDEADYYCGTWDSSLSAGVFGGGTKVTVLG
[1]
  % inhibition of binding: 17.4%
[2]
  % inhibition of binding: 90.8%
[3]
  % inhibition of binding: 5.74%
[4]
  % inhibition of binding: 9.35%
[5]
  EC50: 0.378 µg/mL

B6: antibody 354S (antibody, V domains shown)
VH: QVQLVQSGAEVKKPGASVKVSCKASGYSFASYYIHWVRQAPGQGLEWMGIINPSGGTTSYAQKFQGRVTMTRDTSTSTVYMELSSLGSEDTAVYYCARIVDRVTIYLNGVDNYWGQGTLVTVSS
VL: EIVMTQSPATLSVSPGERVTLSCRASQSVSSNLAWFQQTPGQAPRLLIYGASTRASGVPARFSGSGSGTEFTLTISSLQSEDFAVYYCLQYNNWPPGWKYGFGQGTKLEIK
[7]
  % inhibition of binding: 17.9%
[8]
  % inhibition of binding: 16.2%
[9]
  % inhibition of binding: 18.9%
[10]
  % inhibition of binding: 18.7%
[5]
  EC50: 0.0404 µg/mL

B7: antibody 380L (antibody, V domains shown)
VH: EVQLVESGGGLVQPGGSLTLSCAASGFTFGDYVMHWVRQVPGRGLEWLSAVSWSGYTTYSADSVKGRFTISRDNAKNSLYLQMSRLGTADTGLYYCVTLIGAIGIRDSFDAWGRGVLVTVSS
VL: QSVLTQPPSMSGAPGQRVTVSCTGSSSNIGAGNYVQWYQQLPGTAPKVLIYQTDKRPSGISDRFSGSKSGTSASLTISGLQSEDEADYYCQVYDSSLNGWVFGGGTRLTVL
notes: also called 380L mAb; mAb 380L
[11]
  EC50: 0.012 µg/mL
[12]
  EC50: 0.0238 µg/mL
[13]
  % inhibition of binding: 97%
[14]
  % inhibition of binding: 81.9%
[15]
  % inhibition of binding: 13%
[16]
  % inhibition of binding: 100%
[17]
  % inhibition of binding: 24%
[18]
  % inhibition of binding: 93%
[19]
  % inhibition of binding: 3.6%

B8: antibody 316L (antibody, V domains shown)
VH: EERLVESGGGLVQPGGSLRLSCAASGFTFGDYAMHWVRQVPGKSLEWLSGISWSGYTTYSADSVKGRFTISRDNAKNSLYLQMNRLRPEDTGLYYCVTLIGAIGIKDSLDVWGRGVLVTVSS
VL: QSVLTQPPSVSGAPGQRVTVSCSGSSSNIGAGNYVQWYQQLPGTAPKVLIYQTEKRPSGTSDRFSGSKSDTSASLTINGLQSEDEADYYCQVYDSNLNGWVFGGGTRLTVLG
notes: also called 316L mAb; mAb 316L
[20]
  % inhibition of binding: 92%
[11]
  EC50: 0.0124 µg/mL
[12]
  EC50: 0.0272 µg/mL
[13]
  % inhibition of binding: 98%
[14]
  % inhibition of binding: 80%
[15]
  % inhibition of binding: 13%
[16]
  % inhibition of binding: 100%
[17]
  % inhibition of binding: 26%
[19]
  % inhibition of binding: 14.5%

B9: antibody 13C6 (antibody, V domains shown)
VH: QLTLKESGPGILKPSQTLSLTCSLSGFSLSTSGVGVGWFRQPSGKGLEWLALIWWDDDKYYNPSLKSQLSISKDFSRNQVFLKISNVDIADTATYYCARRDPFGYDNAMGYWGQGTSVTVSS
VL: DIVMTQSQKFMSTSVGDRVSLTCKASQNVGTAVAWYQQKPGQSPKLLIYSASNRYTGVPDRFTGSGSGTDFTLTISNMQSEDLADYFCQQYSSYPLTFGAGTKLELR
[21]
  % inhibition of binding: 95%
[22]
  % inhibition of binding: 16%
[23]
  % inhibition of binding: 97%
[24]
  % inhibition of binding: 1%
[25]
  % inhibition of binding: 95%

B10: antibody 16F6 (antibody, V domains shown)
VH: EVQLVESGGGLVTPGGSLKLSCAASGFAFNYYDMFWVRQNTEKRLEWVAYINSGGGNTYYPDTVKGRFTISRDNAKKTLFLQMSSLRSEDTAMYYCARQLYGNSFFDYWGQGTSLTVSA
VL: DIVMTQSHKFMSTSVGDRVTITCKASQDVTTAVAWYQQKPGHSPKLLIYWASTRHTGVPDRFTGSGSGTDFTLTLNSVQAEDLALYYCQQHYSTPLTFGAGTKLELK
[26]
  EC50: 0.0558 µg/mL
[27]
  EC50: 0.05 µg/mL
[28]
  % inhibition of binding: 0.2%
[29]
  % inhibition of binding: 7.8%
